Patent publication US20190307836A1 (Bicycle, published 2019)
Starred links: 1 amine or outer side, 2 acyl side, 3 side chain; linkers in the order of their positions; H or OH if unused. Positions of bridges follow the written chain, without caps; N, C: chain ends. Non-standard residues stand in square brackets, D forms with d. Chains are numbered I, II in the order given. No end group written: not given here. *: point of attachment. TATA = O=C(CC[*:1])N1CN(C(=O)CC[*:2])CN(C(=O)CC[*:3])C1; Dap(PYA) = diaminopropionic acid bearing 4-pentynoyl; 1Nal = N[C@@H](Cc1cccc2ccccc12)C(=O)O; Hyp = O=C(O)[C@@H]1C[C@@H](O)CN1; hArg = N=C(N)NCCCC[C@H](N)C(=O)O; tBuAla = CC(C)(C)C[C@H](N)C(=O)O; Nle = CCCC[C@H](N)C(=O)O; Pent4ynoyl = C#CCCC(=O)*; Dap = NC[C@H](N)C(=O)O; βAla = NCCC(=O)O; Sar = CNCC(=O)O

Columns and labels:
[1] = molecular target: CD137 expressed on cells (CHO cells expressing CD137; Jurkat cells of the Promega CD137 luciferase reporter assay) (UniProt Q07011); assay: cell-based or functional assay
[2] = molecular target: CD137 expressed on cells (CHO cells expressing CD137); Jurkat cells of the Promega CD137 luciferase reporter … (UniProt Q07011 24-255, limits assumed); assay: cell-based or functional assay
Sequence of CD137 expressed on cells (CHO cells expressing CD137); Jurkat cells of the Promega CD137 luciferase reporter … (Q07011 24-255 limits assumed): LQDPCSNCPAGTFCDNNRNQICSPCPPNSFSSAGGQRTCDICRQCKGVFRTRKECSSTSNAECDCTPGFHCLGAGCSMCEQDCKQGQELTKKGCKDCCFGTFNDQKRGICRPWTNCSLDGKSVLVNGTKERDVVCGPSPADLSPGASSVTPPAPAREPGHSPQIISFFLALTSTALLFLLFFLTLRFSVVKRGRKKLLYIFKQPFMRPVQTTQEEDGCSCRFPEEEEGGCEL

Sequence of CD137 expressed on cells (CHO cells expressing CD137; Jurkat cells of the Promega CD137 luciferase reporter assay) (Q07011 24-255 limits assumed): as above

B1: heterotandem bicyclic peptide complex BCY10568 (peptide)
peptide 1: {Pent4ynoyl-βAla}-[Sar][Sar][Sar][Sar][Sar][Sar][Sar][Sar][Sar][Sar]A[hArg]DC[Hyp]LVNPLCLHP[dD]W[hArg]C
peptide 2: Ac-C[tBuAla]PK[dA]PYCFADPY[Nle]CA
modifications: linker I:14-I:21-I:28, II:1-II:8-II:15 via TATA; not fully specified (C-terminus); numbers in words are those of the source; also: chains joined by PEG12 linker, triazole from PYA, linker on chain 2 Lys4 side chain
B1 showed an EC50 (nM), CD137 reporter assay, co-culture with PC3 (EphA2) [1] of 0.25 nM and a Fold Induction over Background, CD137 reporter assay, co-culture with PC3 (EphA2) [1] of 32 fold.

B2: heterotandem bicyclic peptide complex BCY10570 (peptide)
peptide 1: {Pent4ynoyl-βAla}-[Sar][Sar][Sar][Sar][Sar][Sar][Sar][Sar][Sar][Sar]A[hArg]DC[Hyp]LVNPLCLHP[dD]W[hArg]C
peptide 2: Ac-C[tBuAla]PE[dK]PYCFADPY[Nle]CA
modifications: linker I:14-I:21-I:28, II:1-II:8-II:15 via TATA; not fully specified (C-terminus); numbers in words are those of the source; also: chains joined by PEG12 linker, triazole from PYA, linker on chain 2 D-Lys side chain
For B2, the EC50 (nM), CD137 reporter assay, co-culture with PC3 (EphA2) [1] was 0.41 nM and the Fold Induction over Background, CD137 reporter assay, co-culture with PC3 (EphA2) [1] was 38 fold.

B3: heterotandem bicyclic peptide complex BCY10574 (peptide)
peptide 1: A[hArg]DC[Hyp]LVNPLCLHP[dD]W[hArg]C
peptide 2: Ac-C[tBuAla]PK(Pent4ynoyl)[dA]PYCFADPY[Nle]CA
modifications: linker I:4-I:11-I:18, II:1-II:8-II:15 via TATA; not fully specified (C-terminus); also: chains joined by PEG5 linker on chain 1 N-terminus, triazole to K(PYA)
B3 was tested, and the EC50 (nM), CD137 reporter assay, co-culture with PC3 (EphA2) [1] was 1 nM and the Fold Induction over Background, CD137 reporter assay, co-culture with PC3 (EphA2) [1] was 32 fold.

B4: heterotandem bicyclic peptide complex BCY10575 (peptide)
peptide 1: A[hArg]DC[Hyp]LVNPLCLHP[dD]W[hArg]C
peptide 2: Ac-C[tBuAla]PE[dK](Pent4ynoyl)PYCFADPY[Nle]CA
modifications: linker I:4-I:11-I:18, II:1-II:8-II:15 via TATA; not fully specified (C-terminus); also: chains joined by PEG5 linker on chain 1 N-terminus, triazole to D-Lys(PYA)
For B4, the EC50 (nM), CD137 reporter assay, co-culture with PC3 (EphA2) [1] was 0.62 nM and the Fold Induction over Background, CD137 reporter assay, co-culture with PC3 (EphA2) [1] was 38 fold.

B5: heterotandem bicyclic peptide complex BCY10576 (peptide)
peptide 1: A[hArg]DC[Hyp]LVNPLCLHP[dD]W[hArg]C
peptide 2: Ac-C[tBuAla]PE[dA]PYCFADPY[Nle]C-{Dap(PYA)}
modifications: linker I:4-I:11-I:18, II:1-II:8-II:15 via TATA; not fully specified (C-terminus); also: chains joined by PEG5 linker on chain 1 N-terminus, triazole to Dap(PYA)
B5 showed an EC50 (nM), CD137 reporter assay, co-culture with PC3 (EphA2) [1] of 0.51 nM and a Fold Induction over Background, CD137 reporter assay, co-culture with PC3 (EphA2) [1] of 38 fold.

B6: heterotandem bicyclic peptide complex BCY11379 (peptide)
peptide 1: SDKCSAGWLTMCQXLHLCPSH
peptide 2: CXPKAPYCFADPYXCA
modifications: not fully specified; BCY8919: N-terminal acetyl; tBuAla1, Lys3 bearing the linker, D-Ala4, Nle12; Ci, Cii, Ciii on TATA scaffold; BCY10861: N-terminal acetyl; K(PYA)9 bearing the linker; Ci, Cii, Ciii on TATA scaffold
For B6, the “EC50 (nM), CD137 reporter assay, co-culture with RKO (PD-L1)” value (“EC50 (nM), CD137 reporter assay … (PD-L1)” below) [2] was 68 nM.

B7: heterotandem bicyclic peptide complex BCY11380 (peptide)
peptide 1: SDKCSAGWLTMCQXLHLCPSH
peptide 2: CXPEKPYCFADPYXCA
modifications: not fully specified; BCY8920: N-terminal acetyl; tBuAla1, D-Lys4 bearing the linker, Nle12; Ci, Cii, Ciii on TATA scaffold; BCY10861: N-terminal acetyl; K(PYA)9 bearing the linker; Ci, Cii, Ciii on TATA scaffold
In the case of B7, the “EC50 (nM), CD137 reporter assay … (PD-L1)” value [2] is reported as 34 nM.

B8: heterotandem bicyclic peptide complex BCY10567 (peptide)
peptide 1: {Pent4ynoyl-βAla}-[Sar][Sar][Sar][Sar][Sar][Sar][Sar][Sar][Sar][Sar]CP[1Nal][dD]CM[hArg]DWSTP[Hyp]WC
peptide 2: Ac-C[tBuAla]PK[dA]PYCFADPY[Nle]CA
modifications: linker I:11-I:15-I:25, II:1-II:8-II:15 via TATA; not fully specified (C-terminus, bridges); numbers in words are those of the source; also: chains joined by PEG12 linker, triazole from PYA, linker on chain 2 Lys4 side chain
With B8 the “EC50 (nM), CD137 reporter assay, co-culture with H1376 (Nectin4)” value (shortened to “EC50 (nM), CD137 reporter assay … (Nectin4)”) [2] was 1.7 nM and the “Fold Induction over Background, CD137 reporter assay, co-culture with H1376 (Nectin4)” value [2] was 45 fold.

B9: heterotandem bicyclic peptide complex BCY10569 (peptide)
peptide 1: {Pent4ynoyl-βAla}-[Sar][Sar][Sar][Sar][Sar][Sar][Sar][Sar][Sar][Sar]CP[1Nal][dD]CM[hArg]DWSTP[Hyp]WC
peptide 2: Ac-C[tBuAla]PE[dK]PYCFADPY[Nle]CA
modifications: linker I:11-I:15-I:25, II:1-II:8-II:15 via TATA; not fully specified (C-terminus, bridges); numbers in words are those of the source; also: chains joined by PEG12 linker, triazole from PYA, linker on chain 2 D-Lys side chain
With B9 the “EC50 (nM), CD137 reporter assay … (Nectin4)” value [2] was 1.2 nM and the “Fold Induction over Background, CD137 reporter assay, co-culture with H1376 (Nectin4)” value [2] was 52 fold.

B10: heterotandem bicyclic peptide complex BCY10578 (peptide)
peptide 1: {Pent4ynoyl-βAla}-[Sar][Sar][Sar][Sar][Sar][Sar][Sar][Sar][Sar][Sar]CP[1Nal][dD]CM[hArg]DWSTP[Hyp]WC
peptide 2: Ac-C[tBuAla]PE[dA]PYCFADPY[Nle]C[Dap]
modifications: linker I:11-I:15-I:25, II:1-II:8-II:15 via TATA; not fully specified (C-terminus); numbers in words are those of the source; also: linker to a chain's N/C-terminus via CH2
For B10, the “EC50 (nM), CD137 reporter assay … (Nectin4)” value [2] was 0.42 nM.

B11: heterotandem bicyclic peptide complex BCY8939 (peptide)
peptide 1: CXDWCHWTFSHGHPC
peptide 2: ACIEEGQYCFADPYXC
modifications: BCY7732: N-terminal acetyl; Nle12; C-terminal Dap (diaminopropionic acid) bearing the linker; Ci, Cii, Ciii on TATA scaffold; BCY8938: N-terminal [PYA]-[B-Ala]-[Sar10]- (linker on PYA); HArg1; Ci, Cii, Ciii on TATA scaffold
In the case of B11, the “Fold Induction over Background, CD137 reporter assay, co-culture with MC38 (mouse PD-L1)” value [2] is reported as less than 2 fold.

B12: heterotandem bicyclic peptide complex BCY10580 (peptide)
peptide 1: {Pent4ynoyl-βAla}-[Sar][Sar][Sar][Sar][Sar][Sar][Sar][Sar][Sar][Sar]SDKCSAGWLTMCQKLHLC
peptide 2: Ac-C[tBuAla]PE[dA]PYCFADPY[Nle]C[Dap]
modifications: linker I:14-I:22-I:28, II:1-II:8-II:15 via TATA; not fully specified (C-terminus); numbers in words are those of the source; also: linker to a chain's N/C-terminus via PEG12
For B12, the “EC50 (nM), CD137 reporter assay … (PD-L1)” value [2] was 28 nM and the “Fold Induction over Background, CD137 reporter assay, co-culture with RKO (PD-L1)” value [2] was 3 fold.

B13: heterotandem bicyclic peptide complex BCY10582 (peptide)
peptide 1: SDKCSAGWLTMCQXLHLC
peptide 2: CXPEAPYCFADPYXC
modifications: not fully specified; BCY9172: N-terminal acetyl; tBuAla1, D-Ala4, Nle12; C-terminal Dap (diaminopropionic acid) bearing the linker; Ci, Cii, Ciii on TATA scaffold; BCY10045: free N-terminus (NH2-); K(PYA)9 bearing the linker; Ci, Cii, Ciii on TATA scaffold
In the case of B13, the “EC50 (nM), CD137 reporter assay … (PD-L1)” value [2] is reported as 28 nM and the “Fold Induction over Background, CD137 reporter assay, co-culture with RKO (PD-L1)” value [2] is reported as 4 fold.

B14: heterotandem bicyclic peptide complex BCY11017 (peptide)
peptide 1: SDKCSAGWLTMCQXLHLCPSH
peptide 2: CXPKAPYCFADPYXCA
modifications: not fully specified; BCY8919: N-terminal acetyl; tBuAla1, Lys3 bearing the linker, D-Ala4, Nle12; Ci, Cii, Ciii on TATA scaffold; BCY10861: N-terminal acetyl; K(PYA)9 bearing the linker; Ci, Cii, Ciii on TATA scaffold
With B14 the “EC50 (nM), CD137 reporter assay … (PD-L1)” value [2] was 66 nM.

B15: heterotandem bicyclic peptide complex BCY11018 (peptide)
peptide 1: SDKCSAGWLTMCQXLHLCPSH
peptide 2: CXPEKPYCFADPYXCA
modifications: not fully specified; BCY8920: N-terminal acetyl; tBuAla1, D-Lys4 bearing the linker, Nle12; Ci, Cii, Ciii on TATA scaffold; BCY10861: N-terminal acetyl; K(PYA)9 bearing the linker; Ci, Cii, Ciii on TATA scaffold
For B15, the “EC50 (nM), CD137 reporter assay … (PD-L1)” value [2] was 27 nM.

B16: heterotandem bicyclic peptide complex BCY11376 (peptide)
peptide 1: SDKCSAGWLTMCQXLHLCPSH
peptide 2: CXPKAPYCFADPYXCA
modifications: not fully specified; BCY8919: N-terminal acetyl; tBuAla1, Lys3 bearing the linker, D-Ala4, Nle12; Ci, Cii, Ciii on TATA scaffold; BCY10861: N-terminal acetyl; K(PYA)9 bearing the linker; Ci, Cii, Ciii on TATA scaffold
In the case of B16, the “EC50 (nM), CD137 reporter assay … (PD-L1)” value [2] is reported as 127 nM.

B17: heterotandem bicyclic peptide complex BCY11377 (peptide)
peptide 1: SDKCSAGWLTMCQXLHLCPSH
peptide 2: CXPEKPYCFADPYXCA
modifications: not fully specified; BCY8920: N-terminal acetyl; tBuAla1, D-Lys4 bearing the linker, Nle12; Ci, Cii, Ciii on TATA scaffold; BCY10861: N-terminal acetyl; K(PYA)9 bearing the linker; Ci, Cii, Ciii on TATA scaffold
In the case of B17, the “EC50 (nM), CD137 reporter assay … (PD-L1)” value [2] is reported as 40 nM.
